# Laboratory results published in IntAct's records for PubMed 12826668.
# B1: Disabled homolog 1 (Mus musculus), P97318 (parent)
# chain: MSTETELQVAVKTSAKKDSRKKGQDRSEATLIKRFKGEGVRYKAKLIGIDEVSAARGDKLCQDSMMKLKGVVAGARSKGEHKQKIFLTISFGGIKIFDEKTGALQHHHAVHEISYIAKDITDHRAFGYVCGKEGNHRFVAIKTAQAAEPVILDLRDLFQLIYELKQREELEKKAQKDKQCEQAVYQTILEEDVEDPVYQYIVFEAGHEPIRDPETEENIYQVPTSQKKEGVYDVPKSQPNSQPLEDFESRFAAATPNRNLSMDFDELLEATKVSAVTQLELFGDMSTPPDITSPPTPATPGDAFLPSSSQTLPGSADVFGSMSFGTAAVPSGYVAMGAVLPSFWGQQPLVQQQIAMGAQPPVAQVIPGAQPIAWGQPGLFPATQQAWPTVAGQFPPAAFMPTQTVMPLAAAMFQGPLTPLATVPGTNDSARSSPQSDKPRQKMGKESFKDFQMVQPPPVPSRKPDQPSLTCTSEAFSSYFNKVGVAQDTDDCDDFDISQLNLTPVTSTTPSTNSPPTPAPRQSSPSKSSASHVSDPTADDIFEEGFESPSKSEEQEAPDGSQASSTSDPFGEPSGEPSGDNISPQDGS
# partner: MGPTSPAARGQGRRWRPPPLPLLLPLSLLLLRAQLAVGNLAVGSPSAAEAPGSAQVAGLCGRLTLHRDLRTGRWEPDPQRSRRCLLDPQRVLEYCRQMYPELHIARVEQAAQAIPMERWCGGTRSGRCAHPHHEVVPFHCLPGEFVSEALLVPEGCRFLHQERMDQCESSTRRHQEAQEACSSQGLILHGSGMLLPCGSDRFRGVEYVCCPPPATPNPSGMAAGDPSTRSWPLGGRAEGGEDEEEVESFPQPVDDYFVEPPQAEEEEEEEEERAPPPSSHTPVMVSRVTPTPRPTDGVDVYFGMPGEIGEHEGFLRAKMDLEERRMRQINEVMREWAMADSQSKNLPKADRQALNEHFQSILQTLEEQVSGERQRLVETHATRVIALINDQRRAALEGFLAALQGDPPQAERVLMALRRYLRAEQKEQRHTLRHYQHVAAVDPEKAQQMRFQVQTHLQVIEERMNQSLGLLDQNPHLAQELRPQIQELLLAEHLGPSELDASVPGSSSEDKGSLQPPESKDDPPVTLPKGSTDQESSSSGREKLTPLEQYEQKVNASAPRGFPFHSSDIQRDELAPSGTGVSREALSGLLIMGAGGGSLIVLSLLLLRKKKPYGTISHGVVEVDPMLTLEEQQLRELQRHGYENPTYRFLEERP
# Variants of: B1
# Conditions: with aplp1_mouse Aplp1, Q03157
row,Variant,effect of a mutation on the interaction
1,F158V,disrupting interaction
2,H136R,decreasing interaction
3,S114T,disrupting interaction
